{"source": "patent EP4725966A1", "about": "“HUMAN EPIDERMAL GROWTH FACTOR 3 ANTIBODY, PREPARATION METHOD THEREFOR, AND USE THEREOF” (priority 2023, dated 2024)", "molecules": {"B1": {"name": "hHE4-G1W-DXd (conjugate)", "heavy": "QVQLVESGGGLVKPGGSLRLSCAASGFTFSSYVMSWVRQAPGKGLEWVATISDGDSSTYYADSVKGRFTISRDNAKNSLYLQMNSLRAEDTAVYYCARDKGHGYDEGAFVYWGQGTLVTVSS", "light": "DIQMTQSPSSLSASVGDRVTITCRASENIYSYLAWYQQKPGKAPKLLIYNAKTLAEGVPSRFSGSGSGTDFTLTISSLQPEDFATYYCQNHYGTPYTFGQGTKLEIKR", "modifications": "left off: a dimerising Fc or GST"}}, "key": {"[1]": {"test_system": "A375 cells overexpressing human HER3", "experiment": "ADC cytotoxicity, CellTiter-Glo", "format": "cell-based", "conditions": "Example 21, FIG. 13"}, "[2]": {"test_system": "human HER3-overexpressing JIMT-1 cells", "experiment": "ADC cytotoxicity", "format": "cell-based", "conditions": "FIG. 13", "method": "(§1) A375 and OVCAR3 cells were seeded in 96-well plates at 5,000 cells per well, and gradient-diluted ADCs (cHE4-G1W-DXd, cHE5-G1W-DXd, cHE7-G1W-DXd, patritumab-DXd, and IgG-DXd) were added. After incubation at 37°C for 5 days, cell viability was measured using CellTiter-Glo (Promega) to evaluate cytotoxicity of the ADCs.\n(§2) The cytotoxicity of antibody-drug conjugates based on hHE4-G1W against HER3-expressing HCC1569, A375, and JIMT-1 tumor cells was tested. Antibody-drug conjugates were prepared as described in Example 11. Hydrophobic interaction chromatography indicated the antibody-to-Dxd ratios for cHE4-G1W-DXd, hHE4-G1W-DXd, patritumab-DXd, and negative control IgG-DXd were 1:7, 1:8, 1:7.8, and 1:8, respectively."}, "[3]": {"test_system": "HER3-expressing HCC1569 cells", "experiment": "ADC cytotoxicity", "format": "cell-based", "conditions": "FIG. 13", "method": "as §1, §2"}, "[4]": {"test_system": "DiFi tumor", "experiment": "Tumor inhibition in DiFi tumor-bearing mice", "format": "in vivo, Female SCID mice", "method": "(§3) The anti-tumor efficacy of hHE4-G1W-DXd and cHE5-G1W-DXd was evaluated in DiFi tumor-bearing mice. Female SCID mice were subcutaneously injected with DiFi cells in the dorsal region to establish the xenograft model. After tumor establishment, mice were randomly divided into nine groups and treated once per week for three weeks. Three groups served as negative controls: one group received PBS, and two groups received IgG-DXd at low dose (3 mg/kg) and high dose (6 mg/kg), respectively. Experimental groups were administered with hHE4-G1W-DXd, cHE5-G1W-DXd, or patritumab-DXd at 3 mg/kg or 6 mg/kg. The average Dxd-to-antibody ratio was 8. Mouse body weights and tumor volumes were measured."}, "[5]": {"test_system": "HER3-overexpressing A375 cells", "experiment": "Cell imaging of internalization", "format": "cell-based", "conditions": "100 nM, FIG. 11", "method": "A cell imaging microplate detection system was used to monitor the internalization of hHE4-G1W, hHE4-G1W-DXd, patritumab, and patritumab-DXd after binding to HER3 on the surface of A375 tumor cells. hHE4-G1W, hHE4-G1W-DXd, patritumab, and patritumab-DXd (each 100 nM) were incubated with HER3-overexpressing A375 cells at 4°C for 30 minutes, respectively. Unbound antibodies were removed by washing, and PE-labeled goat anti-human Fc secondary antibody (Jackson) was added. The mixture was incubated at 4°C for 30 minutes, and then the unbound secondary antibody was removed by washing. When the antibodies were bound to the surface of A375 cells and had not yet undergone internalization, these samples were designated as the 0h samples. Fluorescence images were acquired using a Biotek Cytation 1 imaging reader. Cells were then incubated at 37°C for 3 hours and imaged again."}, "[6]": {"test_system": "SW620 tumor", "experiment": "Tumor inhibition in SW620 tumor-bearing mice", "format": "in vivo, Female SCID mice", "conditions": "for tumor growth: single dose, FIG. 14", "method": "as §3, with “SW620” for “DiFi”, “with a single dose.” for “once per week for three weeks.”"}}, "data": [{"molecule": "B1", "values": [{"measurement": "cytotoxicity against A375 cells", "setting": "[1]", "value": "significant cytotoxicity"}, {"measurement": "cytotoxicity against JIMT-1 cells", "setting": "[2]", "value": "significant cytotoxicity"}, {"measurement": "cytotoxicity compared with patritumab-DXd", "setting": "[2]; JIMT-1 cells", "value": "superior cytotoxicity compared with patritumab-DXd"}, {"measurement": "cytotoxicity against HCC1569 cells", "setting": "[3]", "value": "significant cytotoxicity"}, {"measurement": "tumor inhibition compared with patritumab-DXd", "setting": "[4]; low dose of 3 mg/kg, once per week for three weeks", "value": "superior tumor inhibition compared with patritumab-DXd"}, {"measurement": "tumor inhibition compared with patritumab-DXd", "setting": "[4]; overall conclusion, DiFi", "value": "equivalent or improved tumor inhibition against DiFi tumors compared with patritumab-DXd"}, {"measurement": "binding to HER3 on the surface of A375 cells", "setting": "[5]; 0 hour", "value": "bound to HER3 expressed on the cell surface"}, {"measurement": "internalization into A375 cells", "setting": "[5]; after 3 hours at 37°C", "value": "internalized into the A375 cells"}, {"measurement": "tumor growth", "setting": "[6]; 3 mg/kg", "value": "prevented tumor growth"}, {"measurement": "tumor growth", "setting": "[6]; 6 mg/kg", "value": "complete tumor regression in one mouse"}, {"measurement": "tumor inhibition compared with patritumab-DXd", "setting": "[6]; overall conclusion, SW620", "value": "superior tumor inhibition against SW620 tumor compared with patritumab-DXd"}]}]}
